Here are results for three molecules from patent publication US20050037969A1 (ARBOR VITA, published 2005).

The labels stand for the following.
B1: CD97 C-terminal peptide AA14L, biotinylated (peptide)
peptide: Biotin-TSGTGHNQTRALRASESGI
notes: also called CD97 (CD55L)
B2: CD6 C-terminal peptide AA6L, biotinylated (peptide)
peptide: Biotin-SPQPDSTDNDDYDDISAA
B3: Clasp-2 C-terminal peptide AA2L, biotinylated (peptide)
peptide: Biotin-ISGTPTSTMVHGMTSSSSVV

Ends that are not written are not given here. * marks the point of attachment. Biotin = O=C1N[C@H]2[C@H](CS[C@H]2CCCCC(=O)*)N1

T10 sequence (Q13009 other isoform, or with tags, fused parts or gaps): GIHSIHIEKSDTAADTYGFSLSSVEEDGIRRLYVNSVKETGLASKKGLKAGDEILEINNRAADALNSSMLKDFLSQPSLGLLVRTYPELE

The target in one experiment is T1, PICK1 PDZ-GST fusion protein (Bos taurus (Bovine), UniProt Q2T9M1 17-105).
T1 construct: Order of GST and PDZ part and limits not seen in the excerpts
T1 sequence (Q2T9M1 other isoform, or with tags, fused parts or gaps limits assumed): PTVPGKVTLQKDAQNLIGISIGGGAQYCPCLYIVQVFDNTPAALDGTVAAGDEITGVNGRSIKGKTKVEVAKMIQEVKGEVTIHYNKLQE
Put plainly: A/G assays.
Consider B1, for which the binding result was “no binding”.

In the case of B2, the binding result is “no binding”.

Take B3: the binding result is given as “no binding”.

The target of the next experiment is T2, GST-DVL1 PDZ domain fusion protein (human, UniProt O14640 247-339).
T2 construct: also called human dishevelled segment polarity protein homolog; not shown: glutathione S-transferase encoded by vector pGEX-3X (Pharmacia)
T2 sequence: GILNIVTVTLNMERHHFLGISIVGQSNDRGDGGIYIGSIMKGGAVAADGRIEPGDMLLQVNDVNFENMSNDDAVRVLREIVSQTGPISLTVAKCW
Description: A/G assays.
Regarding B1, the binding result is reported as “no binding”.

Consider B2, for which the binding result is “no binding”.

For B3, the binding result was “no binding”.

Another experiment concerns the target T3, GST-TAX-IP43 PDZ domain fusion protein (human, UniProt Q13884 109-180).
T3 construct: also called TAX43; not shown: glutathione S-transferase encoded by vector pGEX-3X (Pharmacia)
T3 sequence: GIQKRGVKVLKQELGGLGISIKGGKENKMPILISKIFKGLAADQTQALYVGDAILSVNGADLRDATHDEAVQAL
Description: A/G assays.
For the molecule B1, the binding result is “no binding”.

As for B2, the binding result was “no binding”.

On to B3, for which the binding result is recorded as “no binding”.

A further experiment addresses T4, GST-prIL16 fusion protein (PDZ domains 1-2) (Homo sapiens (Human), UniProt Q14005 1111-1324).
T4 construct: also called putative interleukin 16 precursor; not shown: glutathione S-transferase encoded by vector pGEX-3X (Pharmacia)
T4 sequence: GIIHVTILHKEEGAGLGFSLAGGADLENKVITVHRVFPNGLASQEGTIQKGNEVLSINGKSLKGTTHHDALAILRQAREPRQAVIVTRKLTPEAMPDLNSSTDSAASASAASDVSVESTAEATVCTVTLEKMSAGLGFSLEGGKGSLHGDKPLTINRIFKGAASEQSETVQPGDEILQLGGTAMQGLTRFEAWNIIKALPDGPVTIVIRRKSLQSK
Description: A/G assays.
Turning to B1, the binding result is “no binding”.

In the case of B2, the binding result was “no binding”.

For B3, the binding result was “no binding”.

A further experiment has as its target T5, GST-DLG5 (p-dlg) PDZ domain fusion protein (Human, UniProt Q8TDM6 1343-1583).
T5 construct: also called Human discs large protein p-dlg; not shown: glutathione S-transferase encoded by vector pGEX-3X (Pharmacia)
T5 sequence: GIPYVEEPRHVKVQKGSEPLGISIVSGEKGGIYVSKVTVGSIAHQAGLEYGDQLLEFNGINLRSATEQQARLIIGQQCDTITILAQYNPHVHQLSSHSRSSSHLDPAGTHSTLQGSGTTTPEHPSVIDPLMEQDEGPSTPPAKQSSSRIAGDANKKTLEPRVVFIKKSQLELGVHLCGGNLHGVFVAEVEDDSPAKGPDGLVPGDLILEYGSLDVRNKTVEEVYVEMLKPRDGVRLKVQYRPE
Description: A/G assays.
On to B1, for which the binding result is “no binding”.

In the case of B2, the binding result was “no binding”.

Consider B3, for which the binding result is “no binding”.

The target of the next experiment is T6, GEF PDZ-GST fusion protein (Homo sapiens (Human), UniProt Q8TEU7 293-400).
T6 construct: The label GEF is not explained in the excerpts
T6 sequence: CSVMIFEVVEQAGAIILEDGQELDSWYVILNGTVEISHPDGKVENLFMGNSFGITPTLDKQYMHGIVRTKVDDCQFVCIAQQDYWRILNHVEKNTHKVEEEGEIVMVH
Put plainly: A/G assays.
In the case of B1, the binding result is listed as “no binding”.

With B2, the binding result is listed as “no binding”.

For B3, the binding result is on record as “no binding”.

For another experiment, the target named is T7, SP short PDZ-GST fusion protein (Homo sapiens (Human), UniProt O43464 350-435).
T7 construct: The label SP short is not explained in the excerpts
T7 sequence: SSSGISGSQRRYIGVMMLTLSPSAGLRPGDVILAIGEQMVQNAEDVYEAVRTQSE
Put plainly: A/G assays.
Regarding B1, the binding result is “no binding”.

For B2, the binding result is reported as “no binding”.

In the case of B3, the binding result is reported as “no binding”.

For the next experiment, the target named is T8, GST-TAX-IP2 PDZ domain fusion protein (human, UniProt O14908 129-216).
T8 construct: also called TAX-1P2; TAX2; not shown: glutathione S-transferase encoded by vector pGEX-3X (Pharmacia)
T8 chain: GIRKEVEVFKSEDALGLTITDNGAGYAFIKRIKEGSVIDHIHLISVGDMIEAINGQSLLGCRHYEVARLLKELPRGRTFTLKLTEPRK
Description: A/G assays.
B1: the binding result is recorded as “no binding”.

With B2, the binding result is reported as “no binding”.

For B3, the binding result is reported as “no binding”.

A further experiment addresses T9, K858 PDZ-GST fusion protein (Homo sapiens (Human), UniProt Q8WWI1 1038-1131).
T9 construct: Order of GST and PDZ part and limits not seen in the excerpts
T9 sequence: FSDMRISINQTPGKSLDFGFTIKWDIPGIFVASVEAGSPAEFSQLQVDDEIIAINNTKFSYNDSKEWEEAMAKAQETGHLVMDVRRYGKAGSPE
Description: A/G assays.
For B1, the binding result was “no binding”.

As for B2, the binding result is given as “no binding”.

On to B3, for which the binding result is reported as “no binding”.

The next experiment has as its target T10, GST-TIAM1 PDZ domain fusion protein (Homo sapiens (Human), UniProt Q13009 845-931).
T10 construct: also called TLAM1; T-lymphoma invasion and metastasis inducing protein 1; not shown: glutathione S-transferase encoded by vector pGEX-3X (Pharmacia)
Put plainly: A/G assays.
Consider B1, for which the binding result is given as “no binding”.

B2: the binding result was “no binding”.

As to B3, the binding result is “no binding”.

A further experiment concerns the target T11, GST-KIAA0303 PDZ domain fusion protein (Homo sapiens (Human), UniProt O15021 1138-1228).
T11 construct: also called K303; not shown: glutathione S-transferase encoded by vector pGEX-3X (Pharmacia)
T11 sequence: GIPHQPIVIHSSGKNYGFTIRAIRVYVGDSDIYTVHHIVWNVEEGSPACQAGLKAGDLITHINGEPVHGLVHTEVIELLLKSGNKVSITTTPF
Description: A/G assays.
With B1, the binding result is “no binding”.

B2: the binding result is recorded as “no binding”.

On to B3, for which the binding result was “no binding”.

The target of another experiment is T12, K316 PDZ-GST fusion protein (Homo sapiens (Human), UniProt Q14CM0 72-159).
T12 construct: Order of GST and PDZ part and limits not seen in the excerpts
T12 sequence (Q14CM0 72-159 limits assumed): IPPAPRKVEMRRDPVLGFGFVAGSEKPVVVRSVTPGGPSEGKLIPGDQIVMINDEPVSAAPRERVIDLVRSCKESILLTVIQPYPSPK
Put plainly: A/G assays.
As for B1, the binding result was “no binding”.

Take B2: the binding result was “no binding”.

In the case of B3, the binding result was “no binding”.

The target of the next experiment is T13, TAX-IP2L PDZ-GST fusion protein (Homo sapiens (Human), UniProt Q8TF64 107-197).
T13 construct: Order of GST and PDZ part and limits not seen in the excerpts
T13 sequence: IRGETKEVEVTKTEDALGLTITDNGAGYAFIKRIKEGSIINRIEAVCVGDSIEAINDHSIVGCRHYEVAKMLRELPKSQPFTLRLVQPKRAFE
Description: A/G assays.
Turning to B1, the binding result was “no binding”.

On to B2, for which the binding result is listed as “no binding”.

B3: the binding result is reported as “no binding”.

Another experiment addresses T14, ConEn PDZ-GST fusion protein (Homo sapiens (Human), UniProt Q969H4 193-287).
T14 construct: The label ConEn is not explained in the excerpts
T14 sequence: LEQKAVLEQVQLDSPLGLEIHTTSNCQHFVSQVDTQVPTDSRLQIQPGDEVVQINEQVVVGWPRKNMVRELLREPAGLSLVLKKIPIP
Description: A/G assays.
With B1, the binding result is “no binding”.

As to B2, the binding result is recorded as “no binding”.

For B3, the binding result is on record as “no binding”.

For a further experiment, the target named is T15, GST-AF6 PDZ domain fusion protein (Homo sapiens (Human), UniProt P55196 1001-1093).
T15 construct: also called af-6 protein; not shown: glutathione S-transferase encoded by vector pGEX-3X (Pharmacia)
T15 sequence: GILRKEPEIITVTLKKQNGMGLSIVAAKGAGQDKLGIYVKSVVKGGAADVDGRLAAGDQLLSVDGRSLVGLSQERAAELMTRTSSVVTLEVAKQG
Description: A/G assays.
With B1, the binding result is “no binding”.

With B2, the binding result is “no binding”.

Regarding B3, the binding result is recorded as “no binding”.

Another experiment concerns the target T16, TAX-IP33 PDZ-GST fusion protein (Homo sapiens (Human), UniProt O14910 103-193).
T16 construct: Order of GST and PDZ part and limits not seen in the excerpts
T16 sequence: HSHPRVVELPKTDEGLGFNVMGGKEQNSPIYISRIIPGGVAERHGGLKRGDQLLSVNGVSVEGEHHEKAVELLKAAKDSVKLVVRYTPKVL
Description: A/G assays.
B1: the binding result is on record as “no binding”.

Regarding B2, the binding result is “no binding”.

On to B3, for which the binding result is “no binding”.
